Measurements taken from publication PMC5376495 (ACS combinatorial science, 2017).
Where no end group is shown, it is not given here. [ ]: non-standard residue; d: D form. Lys(Me3) = C[N+](C)(C)CCCC[C@H](N)C(=O)O

B1: UNC5115 (peptide)
chain: XKF
modifications: N-terminal (2S,3aS,7aS)-octahydro-1H-indole cap; methyl-isopropyl lysine (Kme,iPr); C-terminal piperidinyl ring in place of leucine

Target: His-tagged EED (His6X-EED), full length (UniProt O75530 1-441)
Test: ITC

Sequence of His-tagged EED (His6X-EED), full length (O75530 whole entry): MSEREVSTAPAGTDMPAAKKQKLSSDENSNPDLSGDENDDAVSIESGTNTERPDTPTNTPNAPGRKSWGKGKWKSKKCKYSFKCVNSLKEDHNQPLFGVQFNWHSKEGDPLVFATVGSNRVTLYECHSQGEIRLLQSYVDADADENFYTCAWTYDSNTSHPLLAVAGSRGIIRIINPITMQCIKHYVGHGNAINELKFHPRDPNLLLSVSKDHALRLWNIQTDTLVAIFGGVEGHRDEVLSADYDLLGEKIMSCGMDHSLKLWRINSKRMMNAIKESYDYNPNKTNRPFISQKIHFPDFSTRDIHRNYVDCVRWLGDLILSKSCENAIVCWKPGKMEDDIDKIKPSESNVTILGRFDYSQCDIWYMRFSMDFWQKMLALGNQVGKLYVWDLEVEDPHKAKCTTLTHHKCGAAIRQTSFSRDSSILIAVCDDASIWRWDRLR

Row | Binder | Kd [µM]
1 | QR[Lys(Me3)]FA (peptide, UniProt Q92833 114-118, looked up) [Jarid2_(114–118)K116me3] | 8.82 ± 2.06
2 | B1 | 1.14 ± 0.14
